Source: paper PMC2114473

Key:
Assay in all cases: radioligand binding
[1] = molecular target: type II collagen, pepsinized
[2] = molecular target: type III collagen, pepsinized
[3] = molecular target: type I collagen, pepsinized

cpm bound [1]: 5320 cpm
cpm bound [2]: 4940 cpm
cpm bound [3]: 5320 cpm
Substance: human thrombospondin (TSP) (from UniProt P07996 19-1170) (natural protein)
